In article PMC11633486, “The Intestinal Transporter SLC30A1 Plays a Critical Role in Regulating Systemic Zinc Homeostasis” (Advanced Science, 2024):

Target: the molecule itself
Assay: cryo-EM structure; purified wild-type SLC30A1 at 5 mg/mL in 25 mM Tris pH 8.0, 150 mM NaCl, 0.002% LMNG, 0.0004% CHS; C2 symmetry imposed; homodimer

B1: full-length human SLC30A1 protein (natural protein, UniProt Q9Y6M5 1-507, looked up)
chain: MGCWGRNRGRLLCMLALTFMFMVLEVVVSRVTSSLAMLSDSFHMLSDVLALVVALVAERFARRTHATQKNTFGWIRAEVMGALVNAIFLTGLCFAILLEAIERFIEPHEMQQPLVVLGVGVAGLLVNVLGLCLFHHHSGFSQDSGHGHSHGGHGHGHGLPKGPRVKSTRPGSSDINVAPGEQGPDQEETNTLVANTSNSNGLKLDPADPENPRSGDTVEVQVNGNLVREPDHMELEEDRAGQLNMRGVFLHVLGDALGSVIVVVNALVFYFSWKGCSEGDFCVNPCFPDPCKAFVEIINSTHASVYEAGPCWVLYLDPTLCVVMVCILLYTTYPLLKESALILLQTVPKQIDIRNLIKELRNVEGVEEVHELHVWQLAGSRIIATAHIKCEDPTSYMEVAKTIKDVFHNHGIHATTIQPEFASVGSKSSVVPCELACRTQCALKQCCGTLPQAPSGKDAEKTPAVSISCLELSNNLEKKPRRTKAENIPAVVIEIKNMPNKQPESSL
notes: SLC30A1 (zinc transporter 1), human, full-length cDNA with codon optimization; Homodimer in the cryo-EM structure; the C291 residues of the two protomers form a disulfide bond; also called WT SLC30A1; wild-type SLC30A1; source: HEK293F, transfected (pEZT vector), purified (Strep-Tactin beads, Superose 6 gel filtration) in LMNG/CHS
stoichiometry N: 2
